Blank lines part the entries; values can stand above or below the binder they belong to. Ends that are not written are not given here. dimethyl = dimethyl-lysine
B2: 53BP1 tandem Tudor domain (residues 1459-1634) (domain or fragment, human, UniProt Q12888 1459-1634, looked up)
chain: RSDSPEIPFQAAAGPSDGLDASSPGNSFVGLRVVAKWSSNGYFYSGKITRDVGAGKYKLLFDDGYECDVLGKDILLCDPIPLDTEVTALSEDEYFSAGVVKGHRKESGELYYSIEKEGQRKWYKRMAVILSLEQGNRLREQYGLGPYEAVTPLTKAADISLDNLVEGKRKRRSNVS
notes: also called 53BP1 TTD; TTD; source: E. coli BL21 (DE3), purified (Ni-chelating Sepharose, 3C protease, Source 15Q, Superdex 200 Increase); not shown: His6, N-terminal, cleaved
B3: Tudor interacting repair regulator (TIRR), residues 6-211 (domain or fragment, human, UniProt Q9BRJ7 6-211, looked up)
chain: VPELKQISRVEAMRLGPGWSHSCHAMLYAANPGQLFGRIPMRFSVLMQMRFDGLLGFPGGFVDRRFWSLEDGLNRVLGLGLGCLRLTEADYLSSHLTEGPHRVVAHLYARQLTLEQLHAVEISAVHSRDHGLEVLGLVRVPLYTQKDRVGGFPNFLSNAFVSTAKCQLLFALKVLNMMPEEKLVEALAAATEKQKKALEKLLPASS
notes: two TIRR molecules in the crystal; also called NUDT16L1; wild-type TIRR; source: E. coli BL21 (DE3), purified (Ni-chelating Sepharose, 3C protease, Superdex 200 Increase); not shown: His6, N-terminal, cleaved

Experiments:
[1] = molecular target: B2; test: ITC; 25 °C, PBS pH 7.0 with 140 mM NaCl; 150 μM 53BP1 TTD injected into 15 μM TIRR or its mutants; 80-100 μM TTD mutant into 8-10 μM TIRR; 750 μM H4K20me2 peptide into 37.5 μM TTD; conditions: both partners purified
[2] = molecular target: B3; test: as above; conditions: both partners purified
[3] = molecular target: B3; test: AUC; sedimentation velocity, 60,000 rpm, 20 °C, 10 mM Tris-HCl pH 8.0, 200 mM NaCl, 3 mM DTT; TIRR 53 μM, TTD 35 μM, mixture 20 μM TIRR with 20 μM TTD; conditions: both partners purified
[4] = molecular target: the molecule itself; test: as above

- binding result [1]: binds
B1: H4K20me2 peptide (residues 12-25) (peptide, UniProt P62805 13-26, looked up)
peptide: KGGAKRHRK(dimethyl)VLRDN
notes: histone H4, residues 12-25, dimethylated on lysine 20; Peptide used in ITC

Binder: B2
- Kd [2]: ~780 nM
- stoichiometry N [3]: 1

Binder: B3
- stoichiometry N [4]: 2

Reference: PMC6043480, “Molecular basis for the inhibition of the methyl-lysine binding function of 53BP1 by TIRR” (Nature Communications, 2018)
